T1: APBA1_1, Q02410
T1 sequence (Q02410 651-752, limits assumed, looked up): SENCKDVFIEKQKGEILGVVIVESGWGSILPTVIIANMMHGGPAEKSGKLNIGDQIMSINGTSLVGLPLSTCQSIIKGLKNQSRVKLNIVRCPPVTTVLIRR

T2: DLG3_3, Q92796
T2 sequence (Q92796 374-475, limits assumed, looked up): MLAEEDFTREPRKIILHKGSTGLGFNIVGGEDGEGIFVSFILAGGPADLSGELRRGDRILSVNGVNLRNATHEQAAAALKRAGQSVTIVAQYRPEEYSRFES

T3: GRIP1_4, Q9Y3R0
T3 sequence (Q9Y3R0 467-571, limits assumed, looked up): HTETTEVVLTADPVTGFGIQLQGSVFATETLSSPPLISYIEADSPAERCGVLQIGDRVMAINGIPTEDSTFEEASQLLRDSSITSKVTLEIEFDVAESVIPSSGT

T4: LIN7A, O14910
T4 sequence (O14910 103-200, limits assumed, looked up): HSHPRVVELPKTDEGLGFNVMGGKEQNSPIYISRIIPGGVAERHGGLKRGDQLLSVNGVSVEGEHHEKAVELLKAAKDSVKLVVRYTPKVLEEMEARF

T5: MPP6, Q9NZW5
T5 sequence (Q9NZW5 125-219, limits assumed, looked up): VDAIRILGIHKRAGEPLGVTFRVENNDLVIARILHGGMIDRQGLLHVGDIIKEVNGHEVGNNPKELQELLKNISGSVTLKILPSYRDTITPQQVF

T6: MPP7, Q5T2T1
T6 sequence (Q5T2T1 134-230, limits assumed, looked up): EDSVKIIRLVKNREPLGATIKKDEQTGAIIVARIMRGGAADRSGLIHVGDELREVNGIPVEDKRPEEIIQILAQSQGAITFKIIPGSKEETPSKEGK

T7: RAPGEF6, Q8TEU7
T7 sequence (Q8TEU7 525-625, limits assumed, looked up): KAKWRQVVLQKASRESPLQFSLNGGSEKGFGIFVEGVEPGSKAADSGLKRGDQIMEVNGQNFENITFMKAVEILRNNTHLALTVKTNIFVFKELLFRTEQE

T8: SNTG1, Q9NSN8
T8 sequence (Q9NSN8 52-150, limits assumed, looked up): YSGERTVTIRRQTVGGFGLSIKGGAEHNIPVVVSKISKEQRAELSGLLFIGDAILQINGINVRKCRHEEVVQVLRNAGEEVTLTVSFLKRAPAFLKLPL


Experiments:
Test in all cases: holdup assay
Set-up in all cases: key: below the threshold = too weak to quantify, mostly under pKd 3.1 to 4
Conditions in all cases: plain residues with an end cap or a label only (N-terminal biotin on a linker: ado-ado)
APBA1_1, Q02410 = molecular target: T1, APBA1_1, Q02410
CASK, O14936 = molecular target: CASK, O14936
DLG1_3, Q12959 = molecular target: DLG1_3, Q12959
DLG3_3, Q92796 = molecular target: T2, DLG3_3, Q92796
FRMPD2_1, Q68DX3 = molecular target: FRMPD2_1, Q68DX3
FRMPD3, Q5JV73 = molecular target: FRMPD3, Q5JV73
GRIP1_4, Q9Y3R0 = molecular target: T3, GRIP1_4, Q9Y3R0
GRIP2_4, Q9C0E4 = molecular target: GRIP2_4, Q9C0E4
GRIP2_5, Q9C0E4 = molecular target: GRIP2_5, Q9C0E4
GRIP2_6, Q9C0E4 = molecular target: GRIP2_6, Q9C0E4
HTRA1, Q92743 = molecular target: HTRA1, Q92743
HTRA2, O43464 = molecular target: HTRA2, O43464
IL16_3, Q14005 = molecular target: IL16_3, Q14005
IL16_4, Q14005 = molecular target: IL16_4, Q14005
Inadl_9, Q8NI35 = molecular target: Inadl_9, Q8NI35
LDB3, O75112 = molecular target: LDB3, O75112
LIMK2, P53671 = molecular target: LIMK2, P53671
LIN7A, O14910 = molecular target: T4, LIN7A, O14910
LNX1_1, Q8TBB1 = molecular target: LNX1_1, Q8TBB1
LNX1_3, Q8TBB1 = molecular target: LNX1_3, Q8TBB1
MAGI1_1, Q96QZ7 = molecular target: MAGI1_1, Q96QZ7
MAGI1_2, Q96QZ7 = molecular target: MAGI1_2, Q96QZ7
MAST1, Q9Y2H9 = molecular target: MAST1, Q9Y2H9
MPP6, Q9NZW5 = molecular target: T5, MPP6, Q9NZW5
MPP7, Q5T2T1 = molecular target: T6, MPP7, Q5T2T1
NHERF4_4, Q86UT5 = molecular target: NHERF4_4, Q86UT5
PDZRN4_1, Q6ZMN7 = molecular target: PDZRN4_1, Q6ZMN7
RAPGEF6, Q8TEU7 = molecular target: T7, RAPGEF6, Q8TEU7
SNTG1, Q9NSN8 = molecular target: T8, SNTG1, Q9NSN8

Sequence of FRMPD2_1, Q68DX3 (Q68DX3 770-861): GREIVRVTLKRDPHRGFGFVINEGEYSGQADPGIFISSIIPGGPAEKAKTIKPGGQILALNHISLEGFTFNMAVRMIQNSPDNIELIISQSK
Sequence of LNX1_1, Q8TBB1 (Q8TBB1 261-371): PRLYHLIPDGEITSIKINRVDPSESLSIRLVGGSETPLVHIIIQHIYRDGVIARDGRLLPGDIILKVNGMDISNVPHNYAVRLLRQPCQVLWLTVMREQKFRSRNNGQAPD
Sequence of GRIP2_6, Q9C0E4 (Q9C0E4 648-740): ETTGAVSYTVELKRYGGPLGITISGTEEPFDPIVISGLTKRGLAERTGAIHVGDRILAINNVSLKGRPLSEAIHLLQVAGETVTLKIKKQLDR
Sequence of DLG1_3, Q12959 (Q12959 457-571): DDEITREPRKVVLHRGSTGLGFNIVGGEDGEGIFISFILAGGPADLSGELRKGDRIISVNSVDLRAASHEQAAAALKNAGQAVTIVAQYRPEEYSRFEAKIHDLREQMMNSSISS
Sequence of GRIP2_5, Q9C0E4 (Q9C0E4 544-642): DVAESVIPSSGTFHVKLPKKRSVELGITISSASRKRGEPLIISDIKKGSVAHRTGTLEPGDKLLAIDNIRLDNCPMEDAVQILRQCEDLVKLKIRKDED
Sequence of MAST1, Q9Y2H9 (Q9Y2H9 962-1065): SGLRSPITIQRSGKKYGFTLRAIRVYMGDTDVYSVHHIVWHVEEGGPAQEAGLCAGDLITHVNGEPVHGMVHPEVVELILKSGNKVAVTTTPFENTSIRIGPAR
Sequence of IL16_3, Q14005 (Q14005 1107-1207): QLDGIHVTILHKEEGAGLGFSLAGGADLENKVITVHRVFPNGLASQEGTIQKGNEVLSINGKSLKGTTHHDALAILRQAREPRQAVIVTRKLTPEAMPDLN
Sequence of LDB3, O75112 (O75112 1-94): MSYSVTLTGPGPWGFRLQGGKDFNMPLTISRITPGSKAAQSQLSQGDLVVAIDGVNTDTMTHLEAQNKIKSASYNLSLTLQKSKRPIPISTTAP
Sequence of MAGI1_2, Q96QZ7 (Q96QZ7 456-580): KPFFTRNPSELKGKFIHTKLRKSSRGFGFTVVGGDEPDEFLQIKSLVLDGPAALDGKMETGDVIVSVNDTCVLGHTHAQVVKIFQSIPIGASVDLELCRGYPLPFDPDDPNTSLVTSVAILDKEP
Sequence of LNX1_3, Q8TBB1 (Q8TBB1 500-596): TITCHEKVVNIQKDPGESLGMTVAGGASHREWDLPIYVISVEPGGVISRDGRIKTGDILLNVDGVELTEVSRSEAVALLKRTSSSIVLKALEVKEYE
Sequence of HTRA2, O43464 (O43464 355-458): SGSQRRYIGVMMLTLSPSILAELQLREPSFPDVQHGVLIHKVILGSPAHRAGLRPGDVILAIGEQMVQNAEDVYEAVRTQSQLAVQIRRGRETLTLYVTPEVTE
Sequence of CASK, O14936 (O14936 487-570): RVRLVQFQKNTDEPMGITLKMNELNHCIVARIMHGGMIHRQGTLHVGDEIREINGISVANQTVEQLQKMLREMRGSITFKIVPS
Sequence of LIMK2, P53671 (P53671 143-248): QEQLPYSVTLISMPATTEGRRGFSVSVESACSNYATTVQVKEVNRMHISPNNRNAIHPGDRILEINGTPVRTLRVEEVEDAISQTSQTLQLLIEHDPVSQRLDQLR
Sequence of HTRA1, Q92743 (Q92743 360-477): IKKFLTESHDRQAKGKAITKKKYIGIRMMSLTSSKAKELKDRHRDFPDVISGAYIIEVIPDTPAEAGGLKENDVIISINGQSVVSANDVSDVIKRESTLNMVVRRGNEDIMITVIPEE
Sequence of NHERF4_4, Q86UT5 (Q86UT5 464-550): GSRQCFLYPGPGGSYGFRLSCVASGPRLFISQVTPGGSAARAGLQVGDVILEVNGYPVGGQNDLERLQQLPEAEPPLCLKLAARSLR
Sequence of Inadl_9, Q8NI35 (Q8NI35 1530-1615): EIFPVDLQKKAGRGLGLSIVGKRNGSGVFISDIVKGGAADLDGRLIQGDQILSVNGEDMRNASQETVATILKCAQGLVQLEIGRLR
Sequence of FRMPD3, Q5JV73 (Q5JV73 12-100): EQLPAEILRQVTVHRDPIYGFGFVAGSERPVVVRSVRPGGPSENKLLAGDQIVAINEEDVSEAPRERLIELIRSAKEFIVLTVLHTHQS
Sequence of IL16_4, Q14005 (Q14005 1229-1329): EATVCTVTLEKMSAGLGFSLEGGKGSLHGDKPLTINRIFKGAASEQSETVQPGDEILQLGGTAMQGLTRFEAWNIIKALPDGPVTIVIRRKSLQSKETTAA
Sequence of GRIP2_4, Q9C0E4 (Q9C0E4 446-548): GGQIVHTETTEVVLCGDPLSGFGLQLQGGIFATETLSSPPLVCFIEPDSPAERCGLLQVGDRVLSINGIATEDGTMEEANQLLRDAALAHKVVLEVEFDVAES
Sequence of PDZRN4_1, Q6ZMN7 (Q6ZMN7 213-318): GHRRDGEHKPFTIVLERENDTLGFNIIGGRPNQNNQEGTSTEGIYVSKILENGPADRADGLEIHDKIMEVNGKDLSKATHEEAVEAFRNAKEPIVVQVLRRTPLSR
Sequence of MAGI1_1, Q96QZ7 (Q96QZ7 1-106): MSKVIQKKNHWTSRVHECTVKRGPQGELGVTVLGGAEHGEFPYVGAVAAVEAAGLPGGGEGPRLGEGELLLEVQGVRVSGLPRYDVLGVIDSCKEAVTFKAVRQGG

Binder | pKd (APBA1_1, Q02410) | pKd (CASK, O14936) | pKd (DLG1_3, Q12959) | pKd (DLG3_3, Q92796) | pKd (FRMPD2_1, Q68DX3) | pKd (FRMPD3, Q5JV73) | pKd (GRIP1_4, Q9Y3R0) | pKd (GRIP2_4, Q9C0E4) | pKd (GRIP2_5, Q9C0E4) | pKd (GRIP2_6, Q9C0E4) | pKd (HTRA1, Q92743) | pKd (HTRA2, O43464) | pKd (IL16_3, Q14005) | pKd (IL16_4, Q14005) | pKd (Inadl_9, Q8NI35) | pKd (LDB3, O75112) | pKd (LIMK2, P53671) | pKd (LIN7A, O14910) | pKd (LNX1_1, Q8TBB1) | pKd (LNX1_3, Q8TBB1) | other results
PSDSVGKDVF [EGLN1, Q9GZT9] | below the threshold | below the threshold | below the threshold | below the threshold | below the threshold | below the threshold | below the threshold | below the threshold | below the threshold | below the threshold | 3.77 | below the threshold | below the threshold | 3.63 | below the threshold | below the threshold | below the threshold | below the threshold | below the threshold | below the threshold | pKd (MAGI1_1, Q96QZ7): below the threshold; pKd (MAGI1_2, Q96QZ7): below the threshold; pKd (MAST1, Q9Y2H9): below the threshold; pKd (MPP6, Q9NZW5): below the threshold; pKd (MPP7, Q5T2T1): below the threshold; pKd (NHERF4_4, Q86UT5): below the threshold; pKd (PDZRN4_1, Q6ZMN7): below the threshold; pKd (RAPGEF6, Q8TEU7): below the threshold; pKd (SNTG1, Q9NSN8): below the threshold
SKQFDKNAYV [CLDN10, P78369] | below the threshold | below the threshold | below the threshold | below the threshold | below the threshold | below the threshold | below the threshold | below the threshold | below the threshold | below the threshold | 3.97 | below the threshold | below the threshold | below the threshold | below the threshold | below the threshold | below the threshold | below the threshold | below the threshold | below the threshold | pKd (MAGI1_1, Q96QZ7): below the threshold; pKd (MAGI1_2, Q96QZ7): below the threshold; pKd (MAST1, Q9Y2H9): below the threshold; pKd (MPP6, Q9NZW5): below the threshold; pKd (MPP7, Q5T2T1): below the threshold; pKd (NHERF4_4, Q86UT5): below the threshold; pKd (PDZRN4_1, Q6ZMN7): below the threshold; pKd (RAPGEF6, Q8TEU7): below the threshold; pKd (SNTG1, Q9NSN8): below the threshold
THREVKFTSL [CD46, P15529] | below the threshold | below the threshold | 3.75 | 4.21 | below the threshold | below the threshold | below the threshold | below the threshold | below the threshold | 3.98 | 3.89 | below the threshold | below the threshold | 3.88 | below the threshold | below the threshold | below the threshold | below the threshold | 3.5 | below the threshold | pKd (MAGI1_1, Q96QZ7): below the threshold; pKd (MAGI1_2, Q96QZ7): 3.81; pKd (MAST1, Q9Y2H9): 4.81; pKd (MPP6, Q9NZW5): below the threshold; pKd (MPP7, Q5T2T1): below the threshold; pKd (NHERF4_4, Q86UT5): below the threshold; pKd (PDZRN4_1, Q6ZMN7): 4.57; pKd (RAPGEF6, Q8TEU7): below the threshold; pKd (SNTG1, Q9NSN8): below the threshold

Continued, in another order:

pKd (APBA1_1, Q02410) | pKd (CASK, O14936) | pKd (DLG1_3, Q12959) | pKd (DLG3_3, Q92796) | pKd (FRMPD2_1, Q68DX3) | pKd (FRMPD3, Q5JV73) | pKd (GRIP1_4, Q9Y3R0) | pKd (GRIP2_4, Q9C0E4) | pKd (GRIP2_5, Q9C0E4) | pKd (GRIP2_6, Q9C0E4) | pKd (HTRA1, Q92743) | pKd (HTRA2, O43464) | pKd (IL16_3, Q14005) | pKd (IL16_4, Q14005) | pKd (Inadl_9, Q8NI35) | pKd (LDB3, O75112) | pKd (LIMK2, P53671) | pKd (LIN7A, O14910) | pKd (LNX1_1, Q8TBB1) | pKd (LNX1_3, Q8TBB1) | Binder | other results
below the threshold | 3.55 | below the threshold | below the threshold | 3.7 | 4.03 | below the threshold | below the threshold | below the threshold | 4.27 | 5.49 | 4.02 | below the threshold | below the threshold | 4.56 | below the threshold | below the threshold | below the threshold | 3.65 | 4.09 | QKNKDREYYV [NRXN3, Q9HDB5] | pKd (MAGI1_1, Q96QZ7): below the threshold; pKd (MAGI1_2, Q96QZ7): below the threshold; pKd (MAST1, Q9Y2H9): below the threshold; pKd (MPP6, Q9NZW5): 4.25; pKd (MPP7, Q5T2T1): 4.92; pKd (NHERF4_4, Q86UT5): below the threshold; pKd (PDZRN4_1, Q6ZMN7): below the threshold; pKd (RAPGEF6, Q8TEU7): below the threshold; pKd (SNTG1, Q9NSN8): 3.58
below the threshold | below the threshold | 3.6 | below the threshold | below the threshold | below the threshold | below the threshold | below the threshold | below the threshold | below the threshold | below the threshold | below the threshold | below the threshold | below the threshold | below the threshold | 3.55 | below the threshold | below the threshold | 3.85 | below the threshold | VYEVPVETKF [SLC26A3, P40879] | pKd (MAGI1_1, Q96QZ7): below the threshold; pKd (MAGI1_2, Q96QZ7): below the threshold; pKd (MAST1, Q9Y2H9): 5.07; pKd (MPP6, Q9NZW5): below the threshold; pKd (MPP7, Q5T2T1): below the threshold; pKd (NHERF4_4, Q86UT5): below the threshold; pKd (PDZRN4_1, Q6ZMN7): below the threshold; pKd (RAPGEF6, Q8TEU7): below the threshold; pKd (SNTG1, Q9NSN8): below the threshold

— PMC9482650, “Quantitative fragmentomics allow affinity mapping of interactomes” (Nature Communications, 2022)
